Laboratory results taken from the supplement of paper PMC9170038.

Key:
[1] = tested on: K4 kissing-loop RNA reporter; assay: apparent KD of K4 kissing-loop reporter; higher = weaker reporter binding; details: Eterna round: R107;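 also: bound reporter read as fluorescence of individual clusters on recovered sequencing chips by microscopy, with normalized cluster intensities fitted with a binding model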
Description: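 RNA-MaP round R107: designed RNA switches with theophylline, tryptophan, arginine or FMN aptamers are transcribed on-chip within common flanks. They are titrated with a labelled K4 kissing-loop RNA reporter in RNA-MaP buffer (100 mM Tris pH 7.5, 80 mM KCl, 4 mM MgCl2), without ligand or with the indicated ligand. Median apparent KD per design.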

MS2 coat protein = assay: apparent KD of MS2 coat protein; designed switch direction (-1 OFF switch, 1 ON switch): -1; higher = weaker reporter binding
Procedure, shortened: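 The buffer was Tris-HCl pH 7.5 with KCl, MgCl2, BSA, DTT, tRNA and Tween-20. In it, SNAP-549-labelled MS2 coat protein was titrated in doubling steps from 0.7 or 1.5 nM to 3 µM over chip-bound RNA switches transcribed by stalled E. coli RNA polymerase on Illumina chips. Apparent KD is the per-design median over clusters of curve fits to normalised fluorescence.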

[2] = input ligand: theophylline 20 uM
[3] = input ligand: tryptophan 2.4 mM
[4] = Eterna round: R95, input ligand: FMN 200 uM
[5] = Eterna round: R95, input ligand: microRNA oligo, concentration not stated
[6] = Eterna round: R95, input ligand: none
[7] = input ligand: microRNA oligo, concentration not stated

Sequence	apparent KD of K4 kissing-loop reporter ([1]; input ligand: FMN 200 uM)	apparent KD of K4 kissing-loop reporter ([1]; input ligand: arginine 13.2 mM)	apparent KD of K4 kissing-loop reporter ([1]; input ligand: none)	apparent KD of K4 kissing-loop reporter [1, 2]	apparent KD of K4 kissing-loop reporter [1, 3]	other results
AAGUGAUGUUGUAGUGAUGUUGUGAUGUUGCAGGAUAUAUAGUGAUGUAGAAGGGUAUGUACUUAUUUGUUUUUUGAGUUAUGUU [zzazzrmullin]	65.9 nM	28.5 nM	53.1 nM	41 nM	53.8 nM	
UGUCAUUGGUCUGAUACCAGUACCCUUGGCAGCCGAGGAGUGAUGUUCCAAGGAUACCAGUACCCUUGGCAGCAGACCGAUGACU [TheoBS 30 #DoubleAptamer #SwitchBubble]	219 nM	178 nM	186 nM	108 nM	215 nM	
UACUUAUAUUUCAACUUAAAUUAUUCAGAAGGAGCGUGAUCAUUCACAGGUAGGUCGCUGAACUAGUGAUGUUAGUUUUAAUUUU [JR_Nu_ExcArginiA_Sub022]	66.3 nM	127 nM	76.5 nM	116 nM	62.2 nM	
CCGGCCCAGCCGGAUACCAGUGCGCCGCAGGGAACGGCGGGCCCAGAGUGAUGUUCGGGACACCCUUGGCAGCCGCCUGGGUCCU [#2 Same State - Theophylline B Attempt #29 (HarryS)]	850 nM	662 nM	718 nM	767 nM	864 nM	
UGAUACCAGACGGCCGCCACUCCCGCAGGUCAAAGACCUGCGAAGCUGGUUCUUCAGUGAUGUUGGAGGACCGGGUCUGGUAUCU [FiskerMod 24 - Jieux - Exclusion - Tryptophan B]	306 nM	230 nM	266 nM	263 nM	504 nM	
AAAGACUGACUGCAAUUAGCAGUCAGUCAACGAGGACCGGUACGGCCGCCACUCGGGUCCUAGAGUGAUGUUCUAAUAAUAUAAA [AK1.2 SS Tryptophan A]	374 nM	495 nM	319 nM	490 nM	207 nM	
GGUGCUGUUUGUGCCGCCUUCCUCGUUCCUCGAGGACCGGUACGGCCGCCACUCGAGUGAUGUUUGGGUAGCGAUCCCUGCUAGU [Bdazzled - #13 Exc. Tryptophan A]	892 nM	621 nM	963 nM	658 nM	799 nM	
UUUGUAGAGGGAAGGAGCGUGAAAGAGAAAGAAUAUAGUGAUGUUAUAUAGAAGAAAGAAUCACAGGUAGGUCGCCCGGAGGAGG [SSArgB.E]	463 nM	436 nM	458 nM	563 nM	295 nM	
CAUUCACGGCGAGUCGAAGUGAUGUUUCGGCGAGGACCGGUACGGCCGCCACUCGGAUAAAUAUAGCUUAUCACAUACACUUUCG [theeternabot_exclusion_KL_Trp_A_27]	159 nM	128 nM	140 nM	186 nM	132 nM	
CGUUUAUAGCAGGAUACCAGUACCGAUAAAGUACGUUAAUAGUAGAGUGAUGUUCUAAAGUACCCUUGGCAGCUUAGAGUGAGUG [ExTheophylB.P]	95.3 nM	142 nM	111 nM	162 nM	74.5 nM	
GGUAGCAUGGCGGCCGCCACUUACACCACGGCCCUUCUAGUGAUGUUAGAGUGGAUUAUUCCGUUAAGGACCGGGCCAUGCUACC	629 nM	430 nM	745 nM	650 nM	273 nM	
AGGGCACUGGCGGCCGCCACUUUUCGUGCGAACCAAAGCUAGUGAUGUUGGCUCCCUAGUUGCAAAAGGACCGGGCCGUUCAUCU [theeternabot_sameState_KL_Trp_B_37]	315 nM	195 nM	302 nM	296 nM	211 nM	
UAGUCAUACAGAGGAUAUCGUAUGAGUGAUGUUCAUACGACAUAAUCAAAUUGUAUUGAUGUUCGACGAGAAGGCUGUAUGACUA [FMN B Ex t1]	221 nM	103 nM	124 nM	117 nM	124 nM	
AACUGGGUUCGUGAUACCAGCUCACACAUGAGUGAUGUUGAUGUAGUGGGCAAAAUGUGGAGCCCUUGGCAGCACUGUGACCACG [XTheo-B3]	422 nM	358 nM	411 nM	378 nM	371 nM	
GUCUGCGUCUCGGCCGCCACUCACUAGUGAUGUUAGUAAGGAGCGACUAGAGAAGUCCAGUUAAUGAGGACCGGGAGAAGCUCUU [Exclusion Tryptophan B GF 3]	122 nM	133 nM	137 nM	106 nM	117 nM	
UGUCAUUGGUCUGAUACCAGCUUGAUCGGAAACGAUCUGCUGGAGUGAUGUUCCAAGUAAAGCCCUUGGCAGCAGACCGAUGACU [TheoBS 8 #SwitchBubble #StaticStem]	129 nM	59.8 nM	103 nM	125 nM	102 nM	
ACAGUCGGCUGUGAUACCAGUCGUAUUACAACAUGUUGCAGUGAUGUUGCGAGAUAGGAUGACCCUUGGCAGCACUCAGUACGAU [Same State Theophylline B GF9]	310 nM	99.7 nM	173 nM	179 nM	144 nM	
GAAUGAUAGUAAGGAUAUAGAUAAUCCUUAUAUAUAUCGAGUGAUGUUCGAUGUGGCAAGAUACAUCUAGAAGGUACUGUAAGGU [Same State FMN B GF 16]	309 nM	321 nM	361 nM	361 nM	240 nM	

Sequence	apparent KD of K4 kissing-loop reporter ([1]; input ligand: FMN 200 uM)	apparent KD of K4 kissing-loop reporter ([1]; input ligand: arginine 13.2 mM)	apparent KD of K4 kissing-loop reporter ([1]; input ligand: none)	apparent KD of K4 kissing-loop reporter [1, 2]	apparent KD of K4 kissing-loop reporter [1, 3]	other results
UUUUUAUGCAGUGAUGUUGCUAAUAUAACAGAGGAUAUGCAUUAAUGCAGAAGGCUGAAAUACUAUACUUUAAUAAAUUAAAUUU [JR_SSFMNA_Sub014]	89.9 nM	109 nM	85.5 nM	134 nM	85 nM	
GAUUAUGCGAGCUUUAGGGACAUGAGGAUCACCCAUGUUCGUCUUGUUGAUCUAGGUGCACUGACAUACCUAAAUCU [JMF 88] (puzzle: Sensor v3, turn-off variant 1)						apparent KD of MS2 coat protein (MS2 coat protein; [4]): 20.9 nM; apparent KD of MS2 coat protein (MS2 coat protein; [5]): 27.7 nM; apparent KD of MS2 coat protein (MS2 coat protein; [6]): 22.4 nM
CUUUUGUGAGGAUAUCAUUAGUAAAAAAAUAAAAUUACUACUGAGAAGGCACAUGAGGAUCACCCAUGUUCCUC [salish99_ex4_r3_034] (puzzle: Exclusion 4)						apparent KD of MS2 coat protein (MS2 coat protein; [5]): 37.6 nM
GAGAGAUAGAUAGAGGACGACAUGAGGAUCACCCAUGUGAGGGAAAUGUUAAGGAGAAAGCUUUUUGCUCGUCUUAA [JR_SV3TOV1_Sub034] (puzzle: Sensor v3, turn-off variant 1)						apparent KD of MS2 coat protein (MS2 coat protein; [4]): 123 nM; apparent KD of MS2 coat protein (MS2 coat protein; [5]): 57.7 nM; apparent KD of MS2 coat protein (MS2 coat protein; [6]): 152 nM
CCCUAGUAUGUAGGAUAUCGGUCAGUUUCUGAUCGAGAAGGACAUGAGGAUCACCCAUGUAAAACGUCCGGUUUCUGGAUAGGG [JL ENG1 3.56] (Eterna round: R96, puzzle: Exclusion NG 1)						apparent KD of MS2 coat protein (MS2 coat protein; input ligand: FMN 200 uM): 73.2 nM; apparent KD of MS2 coat protein (MS2 coat protein; [7]): 17 nM; apparent KD of MS2 coat protein (MS2 coat protein; input ligand: none): 24.6 nM
GAAAAGGUAGGAUAUACGAAUAAAAAGGGUAGAAAAAAAACACAUGAGGAUCACCCAUGUAGAAGGACCAAAAG [salish99_ex2_r3_085] (puzzle: Exclusion 2)						apparent KD of MS2 coat protein (MS2 coat protein; [4]): 67.7 nM; apparent KD of MS2 coat protein (MS2 coat protein; [5]): 25 nM; apparent KD of MS2 coat protein (MS2 coat protein; [6]): 24.4 nM
AAAUAGAAUGAGGAUAUCGUAUUGUAUUUAGUGCGAGAAGGCAUUACAUGAGGAUCACCCAUGUUUUGUUGGGA [JR_Ex6_Sub003] (Eterna round: R97, puzzle: Exclusion 6)						apparent KD of MS2 coat protein (MS2 coat protein; input ligand: FMN 200 uM): 89.1 nM; apparent KD of MS2 coat protein (MS2 coat protein; input ligand: none): 32.3 nM
CUGUAGCUAUGAGGAUAUGCCACAAAAGUAGUUGCAGAAGGCAUCCCUACCCAGUAAGAACAUGAGGAUCACCCAUGUGAUCUG [Eternabot solution 43] (Eterna round: R96, puzzle: Exclusion NG 1)						apparent KD of MS2 coat protein (MS2 coat protein; input ligand: FMN 200 uM): 71.6 nM; apparent KD of MS2 coat protein (MS2 coat protein; [7]): 44.5 nM; apparent KD of MS2 coat protein (MS2 coat protein; input ligand: none): 63.4 nM
CCCAUGUCAGGAUAUUAAUUGAGCAGGAAGCCCUGUUCACUUGAGAAGGGACAUGAGGAUCACCCAUGUAAAAC [Aesvea] (Eterna round: R97, puzzle: Exclusion 4)						apparent KD of MS2 coat protein (MS2 coat protein; input ligand: FMN 200 uM): 30.1 nM; apparent KD of MS2 coat protein (MS2 coat protein; input ligand: none): 384 nM
ACAUCCUUAGUAAGGAUAUCGUCCGCCGAGGCGGGCGAGAAGGUACAUGAGGAUCACCCAUGUAUGCAGCAGAU [Eternabot (L2) Solution 59] (Eterna round: R97, puzzle: Brourd's mod of Exclusion 4)						apparent KD of MS2 coat protein (MS2 coat protein; input ligand: FMN 200 uM): 19.1 nM; apparent KD of MS2 coat protein (MS2 coat protein; input ligand: none): 14 nM
CUUUUGUGAGGAUAUCAGUAGUAAAUAAAUAAAAUUAUUACUGAGAAGGCACAUGAGGAUCACCCAUGUUCCUC [salish99_ex3_r3_086] (puzzle: Exclusion 4)						apparent KD of MS2 coat protein (MS2 coat protein; [5]): 36.9 nM
GAAGAACAUGAGGAUCACCCAUGUGAGGAUAUGAAAAAGAAAAGAAAAGAAAGAAGAAUCAGAAGGCACAAAGG [Mat - Mod of Hog D2] (puzzle: Exclusion 1)						apparent KD of MS2 coat protein (MS2 coat protein; [4]): 50.8 nM; apparent KD of MS2 coat protein (MS2 coat protein; [5]): 23.1 nM; apparent KD of MS2 coat protein (MS2 coat protein; [6]): 38.3 nM
CCCGGGUUUGUAGGAUAUGCCCGCCUUUGGCGGGCAGAAGGACAUGAGGAUCACCCAUGUUGUAUAAACUUGGGAUGUUCCUCG [random4] (Eterna round: R96, puzzle: Exclusion NG 1)						apparent KD of MS2 coat protein (MS2 coat protein; input ligand: FMN 200 uM): 30.8 nM; apparent KD of MS2 coat protein (MS2 coat protein; [7]): 31.3 nM; apparent KD of MS2 coat protein (MS2 coat protein; input ligand: none): 40.7 nM
UUUUAACAUGAGGAUCACCCAUGUGAGGAUAUCGAAAUUUAUAUUAAUAUUUUUAUAACGAGAAGGCACAUUUU [JMF 71] (puzzle: Exclusion 1)						apparent KD of MS2 coat protein (MS2 coat protein; [5]): 64.8 nM
GGGUGCAGGCUGAGGUCCUACAUGAGGAUCACCCAUGUGGUCCGGUGACGUGAGUCACCGGACUUAGCUCGUCUUGU [salish99_S_TOV1_R5_009] (Eterna round: R97, puzzle: Sensor, turn-off variant 1)						apparent KD of MS2 coat protein (MS2 coat protein; input ligand: FMN 200 uM): 82 nM; apparent KD of MS2 coat protein (MS2 coat protein; input ligand: none): 97.8 nM
CCAAGAAUAGGAUAUACACCAUGUCAGCUUAUAUACAACGCACAUGAGGAUCACCCAUGUAGAAGGGUUCUCUC [Exclusion-2-#2] (Eterna round: R97, puzzle: Exclusion 2)						apparent KD of MS2 coat protein (MS2 coat protein; input ligand: FMN 200 uM): 571 nM; apparent KD of MS2 coat protein (MS2 coat protein; input ligand: none): 823 nM
UCUCUGCGAGGAUAUACGUUUGCGCGCUUUCGUUUGCGCGUACAUGAGGAUCACCCAUGUAGAAGGCGCGUUUC [Apr-15 SS2-9] (puzzle: Exclusion 2)						apparent KD of MS2 coat protein (MS2 coat protein; [5]): 12.6 nM
